Test results: patent US20200317768A1 (published 2020)
Positions count from the first letter of the chain named. Numbers in names are those of the source. Values belong to the binder of their own block, whether it stands above or below them.

Key:
[1] = molecular target: T1, cynomolgus monkey FcγRIIIaS extracellular domain, C-terminal His-tag (cynomolgus monkey, UniProt Q8SPW2 21-206 at identity 1.00)); test: SPR; FcgR bound per captured antibody, normalized to SG1
T1 construct: also called cyno FcγRIIIaS; FcgRIIIaS
T1 chain: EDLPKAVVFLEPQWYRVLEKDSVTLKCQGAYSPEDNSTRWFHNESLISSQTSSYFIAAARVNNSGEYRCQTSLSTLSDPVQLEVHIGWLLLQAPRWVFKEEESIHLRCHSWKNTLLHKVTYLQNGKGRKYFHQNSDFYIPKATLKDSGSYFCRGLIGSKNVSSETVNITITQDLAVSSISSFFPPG

Human latent myostatin = molecular target: T2, Human latent myostatin (human, UniProt O14793 25-266; O14793 267-375); test: SPR (BIACORE T200) 37C, pH 7.4, antibody captured by ProA/G
T2 construct: also called human myostatin latent form
T2 sequence 1: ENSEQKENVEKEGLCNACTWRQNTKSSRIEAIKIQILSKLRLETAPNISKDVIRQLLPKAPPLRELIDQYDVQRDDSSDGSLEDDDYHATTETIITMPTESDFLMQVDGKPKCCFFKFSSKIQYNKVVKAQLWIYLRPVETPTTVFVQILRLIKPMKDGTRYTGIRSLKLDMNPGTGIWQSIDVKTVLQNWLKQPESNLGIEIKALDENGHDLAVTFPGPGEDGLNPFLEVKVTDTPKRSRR
T2 sequence 2: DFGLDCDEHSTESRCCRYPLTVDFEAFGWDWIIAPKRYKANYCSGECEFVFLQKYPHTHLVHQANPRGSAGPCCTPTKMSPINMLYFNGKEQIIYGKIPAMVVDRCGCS

[2] = molecular target: T3, Cynomolgus monkey latent myostatin (cynomolgus monkey, UniProt Q95J86 25-266; Q95J86 267-375); test: as above
T3 construct: Latent form = complex of two propeptides and the mature dimer; also called Cyno latent myostatin
T3 sequence 1: T2 sequence 1 with V52A
T3 sequence 2: T2 sequence 2

Mouse latent myostatin = molecular target: T4, Mouse latent myostatin (mouse, UniProt O08689 26-267; O08689 268-376); test: as above
T4 construct: Latent form = complex of two propeptides and the mature dimer
T4 sequence 1: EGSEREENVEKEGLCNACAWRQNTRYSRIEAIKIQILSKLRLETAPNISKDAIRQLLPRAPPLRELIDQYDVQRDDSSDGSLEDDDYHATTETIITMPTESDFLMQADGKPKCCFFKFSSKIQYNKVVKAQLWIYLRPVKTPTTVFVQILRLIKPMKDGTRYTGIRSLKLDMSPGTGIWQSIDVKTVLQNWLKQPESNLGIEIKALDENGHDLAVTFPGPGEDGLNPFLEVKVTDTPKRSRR
T4 sequence 2: T2 sequence 2

[3] = molecular target: T1, cynomolgus monkey FcγRIIIaS …; test: SPR (BIACORE) 25C, antibody captured, FcgR as analyte; weak binding, KD by Equation 2
Method: (§1) The kinetic analysis of interactions between these antibodies and FcγR was carried out using BIACORE® T200 or BIACORE® 4000 (GE Healthcare). HBS-EP+ (GE Healthcare) was used as the running buffer, and the measurement temperature was set to 25° C. A chip produced by immobilizing Protein A. Protein A/G or mouse anti-human IgG kappa light chain (BD Biosciences) onto a Series S Sensor Chip CM4 or CM5 (GE Healthcare) by the amine-coupling method was used. […] After the measurement, the antibody captured on the chip was washed off by allowing reaction with 10 mM glycine-HCl, pH1.5 and 25 mM NaOH so that the chip was regenerated and used repeatedly. The sensorgrams obtained as measurement results were analyzed by the 1:1 Langmuir binding model using the BIACORE® Evaluation Software to calculate the binding rate constant ka (L/mol/s) and dissociation rate constant kd (l/s), and the dissociation constant KD (mol/L) was calculated from these values. […] Regarding such interactions, KD values were calculated using the following 1:1 binding model described in BIACORE® T100 Software Handbook BR1006-48 Edition AE.
(§2) The behavior of interacting molecules according to the 1:1 binding model on BIACORE® can be described by Equation 1: Req=C·R max/(KD+C)+RI, wherein, Req is a plot of steady-state binding levels to analyte concentration. […]

[4] = molecular target: T5, human FcγRIIaH extracellular domain, C-terminal His-tag (human, UniProt P12318 34-217); test: as above
T5 construct: also called human FcγRIIa (type H); FcgRIIaH
T5 sequence: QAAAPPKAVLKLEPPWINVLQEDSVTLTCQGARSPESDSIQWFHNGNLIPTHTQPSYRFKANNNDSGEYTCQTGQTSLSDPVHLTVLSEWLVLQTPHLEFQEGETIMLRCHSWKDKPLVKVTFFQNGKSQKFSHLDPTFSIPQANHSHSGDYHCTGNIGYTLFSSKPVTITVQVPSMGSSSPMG
Method: as §1, §2

amount of FcgR binding (SG1 = 100) [1]: 100 SG1 = 100
Kd (Human latent myostatin): 0.285 nM
Kd [2]: 0.343 nM
Kd (Mouse latent myostatin): 0.299 nM
B1: MS_M103205H795-SG1/M103202L889-SK1 (antibody, human IgG1, kappa)
heavy: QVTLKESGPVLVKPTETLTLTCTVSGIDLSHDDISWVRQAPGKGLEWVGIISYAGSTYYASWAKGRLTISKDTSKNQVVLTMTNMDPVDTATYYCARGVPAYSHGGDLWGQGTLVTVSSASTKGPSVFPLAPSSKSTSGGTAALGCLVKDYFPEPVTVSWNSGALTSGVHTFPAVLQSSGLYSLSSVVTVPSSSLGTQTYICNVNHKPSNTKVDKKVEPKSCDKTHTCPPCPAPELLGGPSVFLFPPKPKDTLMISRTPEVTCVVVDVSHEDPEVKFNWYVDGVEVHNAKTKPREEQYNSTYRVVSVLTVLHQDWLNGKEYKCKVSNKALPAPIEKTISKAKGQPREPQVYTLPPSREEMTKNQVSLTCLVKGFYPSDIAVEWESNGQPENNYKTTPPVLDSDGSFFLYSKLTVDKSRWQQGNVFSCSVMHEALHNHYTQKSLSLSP
light: DIVMTQSPATLSLSPGERATLSCTSSQSVYHANWLSWFQQKPGQPPKLLIYWASTLAYGVPSRFSGSGSGTDFTLTISSLQPEDAATYYCAGGYGGGRYAFGQGTKVEIKRTVAAPSVFIFPPSDEQLKSGTASVVCLLNNFYPREAKVQWKVDNALQSGNSQESVTEQDSKDSTYSLSSTLTLSKADYEKHKVYACEVTHQGLSSPVTKSFNRGEC
notes: also called MS1032LO06-SG1

Kd [3]: 100000 nM
Kd [4]: 75000 nM
B2: M103205H795-MY009/M103202L889-SK1 (antibody, human IgG1, kappa)
heavy: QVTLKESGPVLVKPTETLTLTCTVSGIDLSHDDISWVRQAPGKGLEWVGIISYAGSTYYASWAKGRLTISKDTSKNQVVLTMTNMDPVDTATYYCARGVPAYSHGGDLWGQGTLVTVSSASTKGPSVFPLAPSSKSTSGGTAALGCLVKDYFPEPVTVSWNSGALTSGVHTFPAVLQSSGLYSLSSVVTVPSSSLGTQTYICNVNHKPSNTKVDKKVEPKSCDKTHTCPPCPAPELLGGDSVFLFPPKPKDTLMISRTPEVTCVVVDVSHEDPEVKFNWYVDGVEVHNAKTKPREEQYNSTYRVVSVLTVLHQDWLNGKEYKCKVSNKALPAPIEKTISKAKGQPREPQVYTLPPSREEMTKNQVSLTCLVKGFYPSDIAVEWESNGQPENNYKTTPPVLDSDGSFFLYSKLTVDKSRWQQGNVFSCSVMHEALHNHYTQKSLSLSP
light: B1 light
notes: CH MY009 = SG1 with P238D (EU numbering); also called MS1032LO06-MY009
